This test addresses T1, MAGE-B2 peptide on HLA-A*02:01 (human).
T1 peptide: GVYDGEEHSV
The test can be described thus: multimer staining.

B1: TCR11 (TCR, V domains shown)
Valpha: GEDVEQSLFLSVREGDSSVINCTYTDSSSTYLYWYKQEPGAGLQLLTYIFSNMDMKQDQRLTVLLNKKDKHLSLRIADTQTGDSAIYFCAEKSITSYDKVIFGPGTSLSVIP
Vbeta: DVKVTQSSRYLVKRTGEKVFLECVQDMDHENMFWYRQDPGLGLRLIYFSYDVKMKEKGDIPEGYSVSREKKERFSLILESASTNQTSMYLCASTRRGTYGYTFGSGTRLTVV
For B1, the binding result is “recognises”.

B2: TCR6 (TCR, V domains shown)
Valpha: AQTVTQSQPEMSVQEAETVTLSCTYDTSENNYYLFWYKQPPSRQMILVIRQEAYKQQNATENRFSVNFQKAAKSFSLKISDSQLGDTAMYFCAFFNAGKSTFGDGTTLTVKP
Vbeta: EAGVAQSPRYKIIEKRQSVAFWCNPISGHATLYWYQQILGQGPKLLIQFQNNGVVDDSQLPKDRFSAERLKGVDSTLKIQPAKLEDSAVYLCASTVGGGPYGYTFGSGTRLTVV
As for B2, the binding result was “recognises”.

B3: TCR10 (TCR, V domains shown)
Valpha: AQSVAQPEDQVNVAEGNPLTVKCTYSVSGNPYLFWYVQYPNRGLQFLLKYITGDNLVKGSYGFEAEFNKSQTSFHLKKPSALVSDSALYFCAVRDNARLMFGDGTQLVVKP
Vbeta: SAVISQKPSRDICQRGTSLTIQCQVDSQVTMMFWYRQQPGQSLTLIATANQGSEATYESGFVIDKFPISRPNLTFSTLTVSNMSPEDSSIYLCSVGPSGHTGYTFGSGTRLTVV
B3: the binding result was “recognises”.

B4: TCR8 (TCR, V domains shown)
Valpha: AQKITQTQPGMFVQEKEAVTLDCTYDTSDQSYGLFWYKQPSSGEMIFLIYQGSYDEQNATEGRYSLNFQKARKSANLVISASQLGDSAMYFCAMRGPTSYGKLTFGQGTILTVHP
Vbeta: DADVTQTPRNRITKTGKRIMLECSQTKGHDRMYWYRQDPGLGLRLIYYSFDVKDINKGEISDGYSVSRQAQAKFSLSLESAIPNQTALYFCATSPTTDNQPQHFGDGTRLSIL
B4: the binding result is recorded as “recognises”.

B5: TCR7 (TCR, V domains shown)
Valpha: GQNIDQPTEMTATEGAIVQINCTYQTSGFNGLFWYQQHAGEAPTFLSYNVLDGLEEKGRFSSFLSRSKGYSYLLLKELQMKDSASYLCAVRRLGGYQKVTFGTGTKLQVIP
Vbeta: GAGVSQSPSNKVTEKGKDVELRCDPISGHTALYWYRQRLGQGLEFLIYFQGNSAPDKSGLPSDRFSAERTGESVSTLTIQRTQQEDSAVYLCASSLVTGSSYNEQFFGPGTRLTVL
Take B5: the binding result is recorded as “recognises”.

B6: TCR5 (TCR, V domains shown)
Valpha: KNEVEQSPQNLTAQEGEFITINCSYSVGISALHWLQQHPGGGIVSLFMLSSGKKKHGRLIATINIQEKHSSLHITASHPRDSAVYICAPGGNQFYFGTGTSLTVIP
Vbeta: DAGITQSPRYKITETGRQVTLMCHQTWSHSYMFWYRQDLGHGLRLIYYSAAADITDKGEVPDGYVVSRSKTENFPLTLESATRSQTSVYFCASSGSNQPQHFGDGTRLSIL
Turning to B6, the binding result is listed as “recognises”.

For the origin of these results see patent publication US20240100162A1 (published 2024).
